Here are results for three substances from patent US20220363763A1.

For experiment [1], the target named is human LAG3 on cells (human) (UniProt P18627). Kind of experiment: flow cytometry (MFI) on Jurkat-LAG3 cells, upper panel; EC50 table has no unit, x axis Concentration (nM); fit value of a flat control curve.
Experiment [2] shares this target. Kind of experiment: flow cytometry (MFI) on activated CD4 T cells, lower panel; EC50 table has no unit, x axis Concentration (nM); fit value of a flat control curve. (Flow cytometry measures light scatter and fluorescence of single cells or particles in a stream.)
Experiment [3] deals with human PD-L1 expressed on mammalian cells (human) (UniProt Q9NZQ7). Nature of the experiment: cell-based binding on Raji-PDL1 cells (FACS by paragraph 328; the y axis of the sheet is labelled IL2 (ng/ml)); EC50 table has no unit, x axis Concentration (nM).
In experiment [4] the target is human PD-L1-Fc protein (human) (UniProt Q9NZQ7). Nature of the experiment: ELISA on coated human PD-L1-Fc; EC50 table has no unit, x axis Ab(nM); fit value of a flat control curve.
Chain of human PD-L1-Fc protein (human) (Q9NZQ7 19-239 limits assumed): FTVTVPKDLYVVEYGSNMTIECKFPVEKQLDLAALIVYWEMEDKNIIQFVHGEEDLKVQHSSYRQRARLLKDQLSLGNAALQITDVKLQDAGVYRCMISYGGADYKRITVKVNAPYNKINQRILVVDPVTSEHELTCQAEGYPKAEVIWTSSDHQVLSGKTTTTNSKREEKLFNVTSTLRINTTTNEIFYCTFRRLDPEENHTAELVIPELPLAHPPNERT

Chain of human LAG3 on cells (human) (P18627 23-525): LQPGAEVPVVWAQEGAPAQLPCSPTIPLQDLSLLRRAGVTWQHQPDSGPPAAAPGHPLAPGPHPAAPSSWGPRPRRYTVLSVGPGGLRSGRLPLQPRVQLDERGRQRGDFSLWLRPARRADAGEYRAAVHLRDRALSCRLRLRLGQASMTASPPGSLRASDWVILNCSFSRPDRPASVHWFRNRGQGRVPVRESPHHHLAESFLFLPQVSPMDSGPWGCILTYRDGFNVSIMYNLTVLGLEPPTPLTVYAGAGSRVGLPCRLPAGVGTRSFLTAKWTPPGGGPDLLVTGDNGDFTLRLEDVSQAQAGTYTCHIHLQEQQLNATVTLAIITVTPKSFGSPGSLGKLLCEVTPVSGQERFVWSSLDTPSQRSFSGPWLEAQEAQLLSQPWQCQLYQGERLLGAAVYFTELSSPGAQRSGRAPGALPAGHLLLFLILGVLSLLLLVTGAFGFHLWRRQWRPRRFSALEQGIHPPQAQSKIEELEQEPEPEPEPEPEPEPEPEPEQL
Chain of human PD-L1 expressed on mammalian cells (human) (Q9NZQ7 19-290): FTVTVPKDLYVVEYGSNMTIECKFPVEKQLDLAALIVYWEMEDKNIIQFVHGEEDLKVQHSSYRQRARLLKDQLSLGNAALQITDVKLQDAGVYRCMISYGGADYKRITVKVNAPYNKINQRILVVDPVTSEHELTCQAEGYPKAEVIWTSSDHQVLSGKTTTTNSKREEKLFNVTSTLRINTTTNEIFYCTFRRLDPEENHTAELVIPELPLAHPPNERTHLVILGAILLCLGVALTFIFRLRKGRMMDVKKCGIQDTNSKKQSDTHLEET

For orientation: EC50 means the concentration needed to bring the measured effect to its halfway point. Low readings indicate a more potent agent, high ones a less potent agent. Consider IgG (antibody), for which the concentration for a half-maximal effect (EC50) is 0.000463 µM in experiment [1] and 3590 µM in experiment [2].

As for Tecentriq (antibody), the EC50 in experiment [3] worked out at 0.000891 µM.

Take hIgG (antibody): the EC50 in experiment [4] was 0.0848 µM.
